Assay results reported in patent publication US9925272B2, “Anti-theophylline antibodies and methods of use” (Hoffmann-La Roche Inc., priority 2012, dated 2018).
Substitutions are numbered along the chain they refer to. Names may count otherwise. Like-named read-outs stand apart in the source and are kept apart here. Values belong to the molecule of their own block, whether it stands above or below them.

Columns and labels:
[1] = Surface-plasmon-resonance (SPR) analysis of the affinity of antibody binding to theophylline
Text: FIG. 3 Binding profiles of the theophylline binding antibodies in SPR experiments.
To determine the affinity of specific binding of the antibody to theophylline, surface-plasmon-resonance (SPR) analyses were applied.

[2] = ELISA for specific binding of the antibody to immobilized biotinylated theophylline; conditions: biotinylated theophylline 500 ng/mL on streptavidin plates; antibody 50-3000 ng/mL; anti-huFc Fab-HRP/ABTS, absorbance 405 nm
Procedure: To determine specific binding of the antibody by ELISA, Streptavidin coated ELISA plates were loaded with biotinylated theophylline (500 ng/mL in PBS) and incubated for 30 minutes at room temperature. After washing twice to remove unbound antigen, antibodies were added at concentrations between 50 and 3000 ng/mL (in PBS) and incubated for 30 minutes. After washing twice, bound antibody was detected with an anti-huFc Fab-HRP conjugate and ABTS substrate (with absorbance measurement at 405 nm).

[3] = read-out: calculated affinities (KD)

ka [1]: 1.31E+05
kd [1]: 0.002214
Kd ([1]; read-out: KD): 17 nM
Kd [1, 3]: 17 nM
Kd ([1]; unit inferred, read-out: KD): 17 nM
B1: humanized antibody: humanized anti-theophylline antibody; VH SEQ ID NO: 12 (V71R), VL SEQ ID NO: 16 (R46L); human IgG1/kappa constant regions (antibody, V domains shown)
VH: QVQLQESGPGLVKPSQTLSLTCTVSGYSITSDYAWNWIRQHPGKGLEWIGYIRYSGHTGYNPSLKSRVTISRDTSKNQFSLKLSSVTAADTAVYYCARWVDYFDYWGQGTLVTVSS
VL: DVVMTQSPLSLPVTLGQPASISCRSSQSIVYNNRYTYLEWFQQRPGQSPRLLIYGVSNRFSGVPDRFSGSGSGTDFTLKISRVEAEDVGVYYCYQGTHAPYTFGQGTKLEIK
modifications: human IgG1/kappa constant regions; humanized VH; humanized VL
binding to theophylline immobilized on the ELISA plate [2]: binds specifically and dose dependent to theophylline

ka [1]: 1.12E+05
kd [1]: 0.00228
Kd ([1]; read-out: KD): 20.3 nM
Kd [1, 3]: 20 nM
Kd ([1]; unit inferred, read-out: KD): 20.3 nM
B2: murine antibody: murine anti-theophylline antibody, IgG1 kappa, from mouse hybridoma; VH SEQ ID NO: 04, VL SEQ ID NO: 08 (antibody, listed as Mus musculus, V domains shown)
VH: DVQLQESGPGLVKPSQSLSLTCAVTGYSITSDYAWNWIRQFPGNRLEWMGYIRYSGHTGYNPSLKSRISITRDTFKNQFFLQFNSVTTEDTATYYCARWVDYFDYWGQGTTLTVSS
VL: B1 VL with T14S, Q17D, P18Q, Q42V, R44K, P49L, R50K, V88M, Q105G
